US20020039577A1 (published 2002)

B1: human CD80 on stably transfected CHO cells (ligand, UniProt P33681 35-288, looked up)
chain: VIHVTKEVKEVATLSCGHNVSVEELAQTRIYWQKEKKMVLTMMSGDMNIWPEYKNRTIFDITNNLSIVILALRPSDEGTYECVVLKYEKDAFKREHLAEVTLSVKADFPTPSISDFEIPTSNIRRIICSTSGGFPEPHLSWLENGEELNAINTTVSQDPETELYAVSSKLDFNMTTNHSFMCLIKYGHLRVNQTFNWNTTKQEHFPDNLLPSWAITLISVNGIFVICCLTYCFAPRCRERRRNERLRRESVRPV
notes: whole, on cells; also called CD80-positive CHO cells; CD80+ CHO cells
B2: human CD86 on stably transfected CHO cells (ligand, UniProt P42081 24-329, looked up)
chain: APLKIQAYFNETADLPCQFANSQNQSLSELVVFWQDQENLVLNEVYLGKEKFDSVHSKYMGRTSFDSDSWTLRLHNLQIKDKGLYQCIIHHKKPTGMIRIHQMNSELSVLANFSQPEIVPISNITENVYINLTCSSIHGYPEPKKMSVLLRTKNSTIEYDGVMQKSQDNVTELYDVSISLSVSFPDVTSNMTIFCILETDKTRLLSSPFSIELEDPQPPPDHIPWITAVLPTVIICVMVFCLILWKWKKKKRPRNSYKCGTNTMEREESEQTKKREKIHIPERSDEAQRVFKSSKTSSCDKSDTCF
notes: whole, on cells; also called CD86-positive CHO cells; CD86+ CHO cells

Experiments:
L104EA29YIg [1] = target: T1, L104EA29YIg (human, UniProt P16410 38-161; P01857 99-330 = IgG part, A29Y; L104E); assay: flow cytometry on human CD80-transfected CHO cells
T1 construct: extracellular domain;domain: hinge, CH2 and CH3 regions of IgC1; Same mobility as dimeric CTLA4Ig; Positions count from methionine +1, not on the UniProt precursor; also called double-site CTLA4 mutant molecule; ATCC PTA-2104
T1 sequence (P16410 other isoform, or with tags, fused parts or gaps A29Y/L104E): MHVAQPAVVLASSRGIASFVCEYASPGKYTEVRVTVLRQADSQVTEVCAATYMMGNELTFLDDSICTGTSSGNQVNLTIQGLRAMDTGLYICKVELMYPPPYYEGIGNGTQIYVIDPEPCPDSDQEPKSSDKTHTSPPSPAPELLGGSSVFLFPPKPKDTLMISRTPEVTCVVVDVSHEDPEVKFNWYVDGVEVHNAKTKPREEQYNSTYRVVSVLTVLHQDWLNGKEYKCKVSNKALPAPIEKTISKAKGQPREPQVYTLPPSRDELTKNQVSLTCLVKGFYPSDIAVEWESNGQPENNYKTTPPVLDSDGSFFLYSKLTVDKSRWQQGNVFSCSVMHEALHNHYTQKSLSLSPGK
Procedure: (§1) Bound immunoglobulin fusion protein was detected using fluorescein isothiocyanate-conjugated goat anti-human immunoglobulin.
(§2) Binding on a total of 5,000 viable cells was analyzed (single determination) on a FACScan, and mean fluorescence intensity (MFI) was determined from data histograms using PC-LYSYS.

L104EA29YIg [2] = target: T1, L104EA29YIg; assay: flow cytometry on human CD86-transfected CHO cells
Procedure: as §1, §2

Binder | binding result (L104EA29YIg [1]) | binding result (L104EA29YIg [2])
B1 | binds | –
B2 | – | binds
